# T1: 33-mer peptide from alpha-gliadin
# T1 chain: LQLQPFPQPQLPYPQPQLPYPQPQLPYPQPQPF
# Molecular target: T1, 33-mer peptide from alpha-gliadin
protein,measurement,value
"Recombinant E40 (histidine-tagged endopeptidase 40 of Actinoallomurus A8, mature form, produced in S. lividans TK24/pIJ86/e40) (protein) AAPSGLSPANLQSAYKLPSSTAGSGQTVAIVDAYDAPTAEADLNVYRSQFGLGACTTANGCFKKVDQNGGTSYPRKDGGWAQEISLDLDMVSAVCPNCKIVLVEAKTNSFANLGTAENTAASLANVISNSYGGSDASDASYGSYYNHPGKAITVSSGDAGYGVEYPASSHYVTAVGGTSLRTASTSRGWSETAWSGAGSGCSAYNTALSGQSGLTGCSRRAVADVSAVADPATGVAVYDSTAYQGQSGWMVFGGTSVAAPIIGGVYGLAANAASIDNNYPYAHTSSLFDVTSGSNGTCTTTKWCTAGTGWDGPTGLGTPNGTGAFGHHHHHH","33-mer gliadin peptide degradation monitored by LC-MS/MS (1:48 enzyme vs substrate molar ratio, pH 5, 37 C): time to complete disappearance of the peptide",the native 33-mer peptide signal completely disappeared after only 15 minutes
same,33-mer gliadin peptide degradation monitored by LC-MS/MS (1:96 molar ratio): time to complete degradation,in that case complete 33-mer degradation took 30 minutes (not shown)
same,cleavage sites from MS/MS spectra of the digestion products,"E40 cleaving site occurs between F-P and Q-L residues of gliadin, leading to short peptides lacking of T-cell stimulatory capacity"

# Reference: patent US20260109962
